Columns and labels:
[1] = target: T1, purified human/cynomolgus/dog/mouse/rat or minipig DLL3 antigen (ELISA coat) (human/cynomolgus/dog/mouse/rat or …); assay: ELISA, plate coated with purified DLL3 antigen, HRP secondary (FIG. 8)
T1 construct: May be the same protein as the his-tagged antigen used for BLI
Method: (§1) Binding affinity of the novel antigen binding constructs to a purified human/cynomolgus/dog/mouse/rat or minipig DLL3 antigen was assessed using ELISA. For this assay, a 96 well ELISA plate was coated with the DLL3 antigen diluted to a concentration of […] in coating buffer (0.05M sodium carbonate-bicarbonate buffer, pH 9.6). 100 μl of this coating solution was added to each well in the plate and incubate at 4° C. overnight. The plate was washed 3 times with 300 μl per well of washing buffer (PBS with 0.05% Tween-20). After the last wash, the plate was blocked by adding to each well 200 μl of blocking buffer (PBS with 1% BSA) warmed to room temperature. The plate was then incubated at room temperature for 1 hour under gentle agitation. After blocking, the plate was washed 3 times with 300 μl per well of washing buffer. Dilution samples for each minibody were created by making 2.5× dilutions from a starting sample at 100 ng/mL, or 250 ng/mL, or 1000 ng/mL or 3000 ng/mL in 100 μL sample buffer (PBS with 1% BSA). The dilution samples were transferred to the assay plate and incubated at room temperature for 1 hour under gentle agitation. The plate was then washed 3 times with 300 μl per well of washing buffer.
Detection was performed by adding 100 μl of HRP labeled detection secondary antibody at an appropriate dilution and incubating the plate at room temperature for 1 hour under gentle agitation. The plate was then washed 3 times with 300 μl per well of washing buffer. For color development, 100 μl of TMB substrate regent, pre-warmed to room temperature, was added to the plate and incubated in the dark at room temperature for 15 min. The reaction was then stopped by adding 100 μl of 650 nm stop solution to the plate and mixed for 1 min at room temperature under gentle agitation. The plate is recorded by reading OD at 650 nm in a plate reader within 20 min after terminating the reaction.

[2] = target: T2, DLL3 on tumor cells of the SHP-77 and NCI-H82 cell lines (UniProt Q9NYJ7 27-618, limits assumed); assay: flow cytometry on SHP-77 tumor cells, mean fluorescence; the legend gives no unit, nM is from the axis '[Minibody],nM'
T2 construct: whole, on cells; also called cellular targets
T2 sequence (looked up): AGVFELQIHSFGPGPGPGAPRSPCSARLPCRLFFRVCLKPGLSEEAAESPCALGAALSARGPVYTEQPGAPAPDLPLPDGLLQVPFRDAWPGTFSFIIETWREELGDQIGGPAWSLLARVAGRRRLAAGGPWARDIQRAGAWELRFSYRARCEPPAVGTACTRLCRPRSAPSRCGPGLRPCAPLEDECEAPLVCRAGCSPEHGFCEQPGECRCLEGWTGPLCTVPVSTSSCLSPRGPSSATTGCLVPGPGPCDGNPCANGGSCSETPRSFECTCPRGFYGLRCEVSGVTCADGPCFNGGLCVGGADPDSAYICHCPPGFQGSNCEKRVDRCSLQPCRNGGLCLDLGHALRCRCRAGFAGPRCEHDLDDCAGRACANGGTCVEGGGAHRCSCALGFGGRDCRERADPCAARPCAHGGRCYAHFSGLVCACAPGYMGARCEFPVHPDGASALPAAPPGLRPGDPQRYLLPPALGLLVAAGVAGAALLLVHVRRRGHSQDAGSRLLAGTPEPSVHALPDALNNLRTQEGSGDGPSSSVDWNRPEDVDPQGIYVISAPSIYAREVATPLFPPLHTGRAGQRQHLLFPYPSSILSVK
Method: (§2) As disclosed herein, the binding of constructs to cellular targets was assessed using flow cytometry. Stock of 2.5× serial dilution of minibodies were created starting from a concentration of 100 nM in 180 μl FACS buffer (PBS 2% FBS). Cells were added to a Corning V-bottom polypropylene cell culture plate at 200,000 cells/well. The cells were centrifuged at 100 rpm for 3 minutes and the supernatant discarded. The minibody dilution series were transferred to the plate containing cell pellets and incubated for 1 hr at 4° C. The plate was then washed 3 times with FACS buffer at 200 μl/well, discarding supernatant after each wash by centrifugation at 1000 rpm. 50 μl/well of detection antibody R&D AlexaFluor-647 Goat anti Human (H+L) was added at a 1:100 dilution in FACS buffer and incubated at 4° C. 1 hr. The plate was washed 3 times with FACS buffer at 200 μl/well, discarding supernatant after each wash by centrifuging at 1000 rpm. Cells were then fixed by adding 100 μl of 1% paraformaldehyde in PBS and incubating at room temperature for 15 minutes. 100 μl of PBS were added to each well and the plate was analyzed by flow cytometry using the allophycocyanin fluorescence setting.

[3] = target: T3, his-tagged-DLL3 antigen (purified human/cynomolgus/dog/mouse/rat or minipig DLL3 antigen) (human/cynomolgus/dog/mouse/rat or …); assay: biolayer interferometry (Octet BLItz), his-tagged DLL3 on nickel-NTA tip, minibody in solution
T3 construct: Antigen loaded on nickel-NTA tips for biolayer interferometry; also called Delta-like protein 3
Method: (§3) As disclosed herein, the binding kinetics of the novel antigen binding constructs to a purified human/cynomolgus/dog/mouse/rat or minipig DLL3 antigen was assessed using biolayer interferometry (TABLE 9) (FIG. 9). The his-tagged-DLL3 antigen was diluted in phosphate buffer saline (PBS) at 10 μg/mL and loaded on a nickel-NTA tip until saturation. The on-rate (Kon) and off-rate (Koff), and the dissociation constant KD, where recorded on Octet BLItz instrument. Dilution samples of the antigen binding construct were prepared in PBS at concentrations between 100 nM and 0.1 nM, by 2.5× dilutions and binding curves recorded at each concentration. Off-rate curves were recorded by immersion of the tip in PBS.

[4] = target: T3, his-tagged-DLL3 antigen (purified …); assay: biolayer interferometry, his-tagged DLL3 on a Ni-NTA tip, minibody at 100 nM; the table gives no unit, nm is from the axis 'Binding (nm)'
Method: as §3

[5] = target: T2, DLL3 on tumor cells of the SHP-77 and …; assay: flow cytometry on NCI-H82 tumor cells, mean fluorescence; the legend gives no unit, nM is from the axis '[Minibody],nM'
Method: as §2

[6] = target: T1, purified human/cynomolgus/dog/mouse/rat …; assay: ELISA on plate-coated recombinant DLL3 antigen, A650 readout, panel with IAB57M1-7, IAB57M2-8, IAB57M1-3 and IAB57M2-6
Method: as §1, with “The dilution samples were transferred to the assay plate and incubated at room temperature for 1 hour under gentle agitation. The plate was then washed 3 times with 300 μl per well of washing buffer.” left out
Detection was performed by adding 100 μl of HRP labeled detection secondary antibody at an appropriate dilution and incubating the plate at room temperature for 1 hour under gentle agitation. […] The plate is recorded by reading OD at 650 nm in a plate reader within 20 min after terminating the reaction.

T3 sequence (Q9NYJ7 whole entry): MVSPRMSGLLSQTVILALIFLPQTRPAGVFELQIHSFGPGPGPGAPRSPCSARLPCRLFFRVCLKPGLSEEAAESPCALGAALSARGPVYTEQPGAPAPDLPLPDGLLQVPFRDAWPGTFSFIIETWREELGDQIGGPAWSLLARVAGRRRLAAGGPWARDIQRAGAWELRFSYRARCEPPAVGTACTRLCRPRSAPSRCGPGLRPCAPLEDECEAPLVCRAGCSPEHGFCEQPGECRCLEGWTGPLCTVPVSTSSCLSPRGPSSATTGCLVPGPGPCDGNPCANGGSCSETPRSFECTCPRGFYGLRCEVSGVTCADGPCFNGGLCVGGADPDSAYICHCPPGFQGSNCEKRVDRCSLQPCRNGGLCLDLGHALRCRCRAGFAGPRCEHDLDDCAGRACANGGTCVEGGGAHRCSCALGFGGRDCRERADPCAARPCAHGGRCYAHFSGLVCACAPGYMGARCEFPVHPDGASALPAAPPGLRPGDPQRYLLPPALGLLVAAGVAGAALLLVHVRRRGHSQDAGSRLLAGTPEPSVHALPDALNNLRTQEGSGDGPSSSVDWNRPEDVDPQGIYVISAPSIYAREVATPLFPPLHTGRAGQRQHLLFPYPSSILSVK
T1 sequence (Q9NYJ7 whole entry): as above

EC50 [1]: 0.109 nM
EC50 [2]: 0.01 nM
Kd [3]: 4 nM
koff [3]: 0.00239 s⁻¹
kon [3]: 599000 M⁻¹ s⁻¹
R equilibrium [4]: 1.04 nm
EC50 [5]: 0.04 nM
EC50 (read off the curve) [6]: ~0.1 nM
B1: IAB57M1-3 (other)
chain: EIVMTQSPATLSVSPGERATLSCKASQSVSNDVVWYQQKPGQAPRLLIYDASNRYTGIPARFSGSGSGTEFTLTISSLQSEDFAVYYCQQDYTSPWTFGQGTKLEIKGSTSGGGSGGGSGGGGSSQVQLVQSGAEVKKPGASVKVSCKASGYTFTNYGMNWVRQAPGQGLEWMGWINTYTGEPTYADDFKGRVTMTTDTSTSTAYMELRSLRSDDTAVYYCARIGDSSPSDYWGQGTLVTVSSEPKSSDKTHTCPPCPPCGGGSSGGGSGGQPREPQVYTLPPSREEMTKNQVSLTCLVKGFYPSDIAVEWESNGQPENNYKTTPPVLDSDGSFFLYSKLTVDKSRWQQGNVFSCSVMHEALHNHYTQKSLSLSPG
notes: Signal peptide left out
